According to the supplement of paper PMC7125110:
± gives the standard error. Fewer inactive variants are shown than the library holds.

B1: glmS ribozyme (parent)
chain: AUAAAAGCGCCAGAACUACAGAAAUGUAGUUGACGAGGAGGAGGUUUAUCGAAUUUUCGGCGGAUGCCUCCAAA

Columns and labels:
Details in all cases: with glucosamine-6-phosphate
[1] = variants of: B1; experiment: self-cleavage kobs at 640 uM GlcN6P; higher = faster cleavage; RNA array
Outline: (§1)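 Tiles bearing barcoded ribozyme variants, transcribed in situ by E. coli RNA polymerase on sequenced MiSeq chips, were imaged over ~14 h at 37 °C using a hybridised Cy3 probe. Glucosamine-6-phosphate was supplied at 40 μM to 10 mM in HEPES/KCl/Mg(OAc)2 buffer. kobs came from one- or two-exponential decay fits to normalised per-tile medians, and weighted Michaelis–Menten fits then provided kcat and KM.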

[2] = variants of: B1; experiment: self-cleavage kobs at 2500 uM GlcN6P; higher = faster cleavage; RNA array
Outline: as §1

[3] = variants of: B1; experiment: self-cleavage kobs at 10000 uM GlcN6P; higher = faster cleavage; RNA array
Outline: as §1

Row | Variant | self-cleavage kobs at 640 uM GlcN6P [1] | self-cleavage kobs at 2500 uM GlcN6P [2] | self-cleavage kobs at 10000 uM GlcN6P [3]
1 | C11A C61U | < 1e-05 s⁻¹ | < 1e-05 s⁻¹ | < 1e-05 s⁻¹
2 | C11A C58U G59U G62U C70U | < 1e-05 s⁻¹ |  | 
3 | C8A C16U C50U U56G | < 1e-05 s⁻¹ |  | 
4 | C10A A15C U45C | < 1e-05 s⁻¹ |  | 
5 | C10U A33G G40U C50G | < 1e-05 s⁻¹ |  | 
6 | C8G G32C G38C U54G | < 1e-05 s⁻¹ | < 1e-05 s⁻¹ | < 1e-05 s⁻¹
7 | C11A A12C A53G U56G | 6.8e-05 ± 1.5e-05 s⁻¹ | 0.000323 ± 6.9e-05 s⁻¹ | 
8 | C11A G32U A39C U54A C67G C68G | 0.00137 ± 0.00067 s⁻¹ |  | 
9 | C8G C10U G38A U65G C68G | 4.45e-05 ± 1.9e-05 s⁻¹ |  | 
10 | C8U G40U G59U C68U | < 1e-05 s⁻¹ |  | 
11 | C11G G13U G29A G66A | < 1e-05 s⁻¹ |  | 
12 | C10U U57C | < 1e-05 s⁻¹ |  | < 1e-05 s⁻¹
13 | G7U G40A G43C | < 1e-05 s⁻¹ | < 1e-05 s⁻¹ | 
14 | G7U C34U A52U | < 1e-05 s⁻¹ | < 1e-05 s⁻¹ | 
15 | C8A C10A U30A C61G | < 1e-05 s⁻¹ | < 1e-05 s⁻¹ | 
16 | C11A A15G G32C A33U | < 1e-05 s⁻¹ |  | 
17 | G9U A36C G43U | < 1e-05 s⁻¹ | < 1e-05 s⁻¹ | 
18 | G7U C11U A12C A15C A48G | < 1e-05 s⁻¹ |  | 
19 | C8U U46G G51U G66U C70G C71U | < 1e-05 s⁻¹ |  | 
20 | C10A G38U A39G | < 1e-05 s⁻¹ | < 1e-05 s⁻¹ | 
21 | C8A G35C G66U A72G | < 1e-05 s⁻¹ |  | 
22 | G9U G40C C50G | < 1e-05 s⁻¹ | < 1e-05 s⁻¹ | 

Row | Variant | self-cleavage kobs at 640 uM GlcN6P [1] | self-cleavage kobs at 2500 uM GlcN6P [2] | self-cleavage kobs at 10000 uM GlcN6P [3]
23 | C8A G13U C58A U65G C67G | < 1e-05 s⁻¹ |  | 
24 | G9A C11A A39U G41A A42U C50A U57G | < 1e-05 s⁻¹ | < 1e-05 s⁻¹ | 
25 | G9U C70G | < 1e-05 s⁻¹ | < 1e-05 s⁻¹ | < 1e-05 s⁻¹
26 | G9A G66U | < 1e-05 s⁻¹ | < 1e-05 s⁻¹ | 
27 | G7U C10U C16A U30G A48C | < 1e-05 s⁻¹ |  | 
28 | G9A U47A C70U | < 1e-05 s⁻¹ |  | 
29 | G9U A33C G41U G62C | < 1e-05 s⁻¹ | < 1e-05 s⁻¹ | 
30 | C10A G35C U55C | < 1e-05 s⁻¹ | < 1e-05 s⁻¹ | 
31 | C10G A33U G35C G41U U54C C70U | < 1e-05 s⁻¹ | < 1e-05 s⁻¹ | 
32 | C8U A12U A14U G44A C61U | < 1e-05 s⁻¹ | < 1e-05 s⁻¹ | 
33 | G9A G38U U57A | < 1e-05 s⁻¹ |  | 
34 | C8A C11U G37C G62A | < 1e-05 s⁻¹ | < 1e-05 s⁻¹ | 
35 | C11G A53C G59U U69A | < 1e-05 s⁻¹ |  | 
36 | G9U G29U C34A G41U U57G G59A | < 1e-05 s⁻¹ | < 1e-05 s⁻¹ | 
37 | G9U U65C | < 1e-05 s⁻¹ |  | < 1e-05 s⁻¹
38 | C10G G40A C70U | < 1e-05 s⁻¹ | < 1e-05 s⁻¹ | 
39 | C10A C58U G63A A64U | < 1e-05 s⁻¹ | < 1e-05 s⁻¹ | 
40 | C11G A12U A42G | < 1e-05 s⁻¹ | < 1e-05 s⁻¹ | 
41 | C10G G38A U47C A52C | < 1e-05 s⁻¹ |  | 
42 | C8A A15G A36C | < 1e-05 s⁻¹ |  | 
43 | G7U G38C U45C C70G | < 1e-05 s⁻¹ |  | 
44 | C11A A33C A39G U45G | < 1e-05 s⁻¹ | < 1e-05 s⁻¹ | 

Row | Variant | self-cleavage kobs at 640 uM GlcN6P [1] | self-cleavage kobs at 2500 uM GlcN6P [2] | self-cleavage kobs at 10000 uM GlcN6P [3]
45 | C8G C50G C61U A64U | 0.00078 ± 0.00019 s⁻¹ | 0.00023 ± 6.3e-05 s⁻¹ | 
46 | C10U C16G U31G A33C C70G | < 1e-05 s⁻¹ |  | 
47 | C8G A12C C71A | < 1e-05 s⁻¹ | < 1e-05 s⁻¹ | 
48 | G7U U46C U65A | < 1e-05 s⁻¹ | < 1e-05 s⁻¹ | 
49 | C11G G37C C68U | 9.13e-05 ± 3.1e-05 s⁻¹ |  | 
50 | G9U A42G U45A C58G | < 1e-05 s⁻¹ | < 1e-05 s⁻¹ | 
51 | C10U A12U C50U C70U | 0.000161 ± 6.4e-05 s⁻¹ |  | 
52 | C8G G35U G37A A48U C67U | < 1e-05 s⁻¹ | < 1e-05 s⁻¹ | 
53 | C11A A52G A64C | < 1e-05 s⁻¹ | < 1e-05 s⁻¹ | 
54 | C11G A33U C58U | < 1e-05 s⁻¹ |  | 
55 | C11A G40C C50U | < 1e-05 s⁻¹ | < 1e-05 s⁻¹ | 
56 | C8U G43A U54C | < 1e-05 s⁻¹ |  | 
57 | C8G G32A A53G | < 1e-05 s⁻¹ |  | 
58 | C10G U55A U57A | < 1e-05 s⁻¹ |  | 
59 | C8A C34A G59U A64G | < 1e-05 s⁻¹ | < 1e-05 s⁻¹ | 
60 | G9U G38U C61U | < 1e-05 s⁻¹ |  | 
61 | C11G A64U | < 1e-05 s⁻¹ | < 1e-05 s⁻¹ | 
62 | G7U G43U U45A C58A | < 1e-05 s⁻¹ | < 1e-05 s⁻¹ | 
63 | C8U G32A C34G | < 1e-05 s⁻¹ | < 1e-05 s⁻¹ | 
64 | C10A G41C C58U | < 1e-05 s⁻¹ |  | 
65 | C8G A36G A42U C67A | < 1e-05 s⁻¹ | < 1e-05 s⁻¹ | 
